Measurements taken from the DeepSol protein solubility set.

assay: soluble on expression in E. coli; label from the status in PepcDB or PDB records

Question: For “MNKKIYVGMTADIMHPGLIHIIHEATKYGDVIVGLLTDKAIAEHKRLPYLTYDQRKEVVENIKGVCEVVPQEDWSYVPNLEKLKPDYIIHGDDWKTGPLREVREQVFEVMNAQGGKVIEIPYTRGINSSSLDKDIKAIGTTPDVRLKSLRRLIQAKPVVRILEAHDGLCGLIIENLEVQKGDKREVFDGMWSSSLTDSTSKGKPDIEAVDLTTRLQDLNNILECTTKPIIFDGDTGGKIEHFVFTVRTLERHGISAVIIEDKVGLKKNSLFGTDAIQTQDSIEGFCDKIRAGKNAQVTGDFMIIARIESLIAGKPMSDALERAYAYVQAGADGIMIHSKDKSGEDIREFCRTFRKEYAHVPIVVVPTTYDHVHESELHEWGANVVIYANHLLRAAYPAMMNVARTILENERAEEVRPLCMPIKEILELIPGTK”, which “soluble on expression in E. coli” value is on record?
Answer: not soluble

Question: Which “soluble on expression in E. coli” value does the source give for “MRVHEPNIIFEDDKHKFIWLGLDESENEKGILTNQYLIVHEGKGYLLDPGGYFVFERVYQNVTRFVKPENIVTILYSHQDPDVIGSLNLWVDLAPNATFYVSALWERFLPHLGAELKGRIVDIPDEGMSIDFIRAIPAHFMHSPGNFHYYDTYAKIYFSGDLGAAIFKDKWYLFVEDFESHIKLMEPFHRRYIASKKAIDIWLKKIEGLEINVIAPQHGAIFEGENAKKFIQWLRNLDKVGLDLME” here?
Answer: soluble

Question: Which “soluble on expression in E. coli” value does the source give for “MVINGLDILLQNPEVLRHRRVGLIANQTSVSMQLEYSWMLLKRAGVELTRIFSPEHGLFAIEQDQIAVGHQPDIGCEIVSLYGDSEHSLAPARELLDGLDLVLFDIQDVGSRYYTYVNTLALFMKAAEGLDIEIMVLDRPNPLGGSLIEGPQLDPAFHSFVGVMPLPVRHGLTAGEIAHFYRNYKKLDLNLNVIPMQGWSRQMLFPETCLPWVPPSPNMPSFEAAEVYPGMCLFEGLNVSEGRGTTTPFLLSGATFVDPEALAERLASMPLEGVVFRPTWFRPTFHKYAGEAIGGLYLHVTDHARFRPFATGVAMTCALYELYPEQLAFLDGVYEFRDDIPAFDLLAGSSTIRSMILDNRDTTAIIASWEKDEAEFAAIKPNFHLYNN” here?
Answer: not soluble

Question: For “MESIGLVEVNSIARGIEAADAMLKAAQVDLLEAKPVCPGKYIVLICGDVAAVQSSVTAGKTMAAHSVLDDFILPNVHPQVLTAISAATPLTLIKALGIIETFSIASLIVAADTAAKTGQVDLVEIRIGMGIGGKSFVTLTGDVASVESSVAAGVMLASERGMLVDKVVIPSPHDHLKRCLC”, which “soluble on expression in E. coli” value is on record?
Answer: soluble

Question: With “MTEEFNESMINDIKEGDKVTGEVQEIEEKQVIVAVNGAKFNGIIPISQLSTHHIDNPSDAVKVGDEIGAYVTKVEYDEENETGAYILSKRQLETEKSYEFLQEQLDNNQTIEAKVTEVVKGGLVVDVGQRGFVPASLISTDFIEDFSDFEGQVLKLKVEELDPANNRVILSRKAVEALENAEKKDELLESLNEGDVIEGKVARLTNFGAFVDIGGVDGLVHVSELSHEHVKSPEDVVSIGETVNVKIKSVDKDSERISLSIKDTLPSPFESIKGEFNEGDVIEGTVVRLANFGAFVEIKPGVQGLVHISEISHSHIGSPSEALEPGQVVSVKVLGVDVENERISLSIKATLPNENVIESDSETTQSYLDNGSDDEDNPTLGDVFGDKLKDFKFLEHHHHHH” as the sequence, how does the “soluble on expression in E. coli” value read?
Answer: soluble

Question: Which “soluble on expression in E. coli” value does the source give for “MELPRAFGLLLHPTSLPGPYGVGVLGREARDFLRFLKEAGGRYWQVLPLGPTGYGDSPYQSFSAFAGNPYLIDLRPLAERGYVRLEDPGFPQGRVDYGLLYAWKWPALKEAFRGFKEKASPEEREAFAAFREREAWWLEDYALFMALKGAHGGLPWNRWPLPLRKREEKALREAKSALAEEVAFHAFTQWLFFRQWGALKAEAEALGIRIIGDMPIFVAEDSAEVWAHPEWFHLDEEGRPTVVAGVPPDYFSETGQRWGNPLYRWDVLEREGFSFWIRRLEKALELFHLVRIDHFRGFEAYWEIPASCPTAVEGRWVKAPGEKLFQKIQEVFGEVPVLAEDLGVITPEVEALRDRFGLPGMKVLQFAFDDGMENPFLPHNYPAHGRVVVYTGTHDNDTTLGWYRTATPHEKAFMARYLADWGITFREEEEVPWALMHLGMKSVARLAVYPVQDVLALGSEARMNYPGRPSGNWAWRLLPGELSPEHGARLRAMAEATERL” here?
Answer: soluble

Question: With “GVTGISTGFIDLNKKTAGLQPSDLIIVAARPSMGKTTFAMNLCENASLHDIEDHNDLDENGNPRKKPAKPVLIFSLEMPADQIMMRMLASLSRVNQTKIRTGQIHDDEEWAKISSTVAILQERKNIFIDDSAGLTPTELRSRARRIYRENGGLSLIMVDYLQLMRVPNFSDNRTLEIAEISRSLKALAKELEVPVVALSQLNRSLEQRQDKRPVNSDL” as the sequence, how does the “soluble on expression in E. coli” value read?
Answer: not soluble

Question: Which “soluble on expression in E. coli” value does the source give for “MSLIDRTHELPLTQQCRILRLARSSMYYTPREVSAHDLALMRRMDELHLEHPFAGARMLRDLLRAEGHAIGRKHVGTLMRRMGIEALYRKPNTSRRRRGDEIYPYLLRDLKIERPNQAWAADITYIPMRKGFVYLFAIIDWSSRRVLAWRLSNTLTTDFCLDAVREALHRYGRPEIFNTDQGCQFTSTDFTDLLKDNGIQISMDGKGCWRDNVFVERLWKSVKYEEVYLKAYDSVAEAKAHLGAYLRFYNERRPHRAHDGRTPDQAYFGALRDETPLAAEGHHHHHH” here?
Answer: not soluble

Question: For “MDSGFTLRAPRNDKRRNPMPAILGTGEHRYRVVENFAKLPDGWQLTDVAAVAVDSLDRVYVFNRGAHPMVVLDREGNFLRSWGEGLFSRAHGLHIDADDNLYCTDDGDHTVRKCTSDGKVLLTIGIPAKPAPFMSGEPFHRCTHTALSPKGEIYVSDGYGNARVHKFTPDGKLIKSWGEPGTDPGQFNIVHNIATDSDGWVYVADRENHRVQVFNGEGKYETQWNNLHRPCALCCCGGRSPTFVIGELGPGLDINRNVPNLGPRLSIVDAKGNRIARLGGEEGPGVASGKFLAPHGIALDSKGDIYVGEVGVTNWATSFPDQEMPAVVRATRCLQKLERVRELEHHHHHH”, which “soluble on expression in E. coli” value is on record?
Answer: not soluble

Question: For “MGSDKIHHHHHHGEYNKLLKSTDYEYKYEAAKNYFAKGQYNRSATLLNELITILKGTDKAEESLYMLGMSYYNQKDYQTAAQTFITYFNTYPRGTFTELARFHAGKSLFLDTPEPRLDQSSTYQAIQQLQMFMEYFPNSTKKQEAQDMIFALQDKLVLKELYSAKLYYNLGNYLGNNYESCVITAQNALKDYPYTDYREELSILILRARHEMAIYSVEDKKMDRYRETIDEYYAFKNEFPESKYLKEAEKIFNESQKVIKD”, which “soluble on expression in E. coli” value is on record?
Answer: not soluble

Question: Which “soluble on expression in E. coli” value does the source give for “MTNNQKLVGRHKRLAFMKVGTEGTYDRITGFTSLIEGKEAKEYARQYIDEATERTDVVGYATGIEYAFDRYTNNAVHEKIANITDDELLGVDAQVEIVSVDVFEEKAGGKYPARKRTYSVVPDTTGDGTDALIYSGNFKAVSEIVKGYCTTTDKWQTCTFVEGEIPAEALEHHHHHH” here?
Answer: soluble

Question: With “GSGLSAQDISQPLQNSFIHTGHGDSDPRHCWGFPDRIDELYLGN” as the sequence, how does the “soluble on expression in E. coli” value read?
Answer: soluble

Question: For “MGNCLFGGLGDEEEDLLIKVIKSDGGVLEFYSPVTAGFVSHGFSGHALFSAVDLLWKPLAHDHLLVPGQSYYLFPNIVSDELKTFVGSCHVRSNSESLSAITPYRMSLDYNHRVLKRSYTDVFSRNSHIRTRQKEKKTRRRRTSSKGAIWKVNLIINTEELLQILSEDGRTNELIESVRAVAKGETSSITSSSSENFLSVVQT”, which “soluble on expression in E. coli” value is on record?
Answer: soluble

Question: For “MQLKRVAEAKLPTPWGDFLMVGFEELATGHDHLALIFGDISGDKPVLSRVHSECLTGDALFSLRCDCGFQLEVALTRIAEEGRGVLIYHRQEGRNIGLLNKIRAYALQDLGADTVEANHQLGFAADERDFTLCSDMYKLLGIKAVRLLTNNPKKVEILTQAGINIVERVPLIVGENPKNEHYLATKAAKMGHLLTK”, which “soluble on expression in E. coli” value is on record?
Answer: not soluble

Question: For “MGISTFFLSVTLFTVNRTCDLLTPPPWYPITVKNTHHTSRHRSIFFILSVMIGKGTREDVQLSLSSLFQGVVMIVGQNPQAPSDLGIEGGERAQGQNAHSVHGPGLQTERGGSQLQMVGHPLRELLEHHHHHH”, which “soluble on expression in E. coli” value is on record?
Answer: not soluble

Question: For “MKVFLIGANGQIGQRLVSLFQDNPDHSIRAMVRKEEQKASLEAAGAEAVLANLEGSPEEIAAAAKGCDAIIFTAGSGGSTGYDKTLLVDLDGAAKAIEAAAIAGIKRFIMVSALQAHNRENWNEALKPYYVAKHYADKILEASGLTYTIIRPG”, which “soluble on expression in E. coli” value is on record?
Answer: not soluble

Question: Which “soluble on expression in E. coli” value does the source give for “MNIYAFDFDEIESQEDFYRDFSQTFGLAKDKVRDLDSLWDVLMNDVLPLPLEIEFVHLGEKTRRRFGALILLFDEAEEELEGHLRFNVRH” here?
Answer: not soluble

Question: Which “soluble on expression in E. coli” value does the source give for “MSTPLMQRSLSPQEWQVFQRGDRWTGARLHQPLNLLLIGSKVLTSDLDHPPDPNLTYHALVNSVEGLSDSLLLVRFDPVQQRLVILSIPRDTLTFIPGRGDAKINEANALGGPALAAATVSELLGNVPIDRYLRINVQGIEKLIDALGGVTLDVPIAMRYRDESQHLYIDLQAGRHHLNGQQALQFLRFRYDALGDIGRVQRQQMFLRTLMEQTARPETLARTPHILSIIRENLDTNLTVEELMSLGQFLTRLPRSRVQFLLLPGNFNGTTEEVAVSYWLPNYQRIAWLTDQYFRDTPTADPRETGLPSPAQVRIAIQNTNLPQSLVMRLSEQLATAGYPHPLVAEPLPQPIPITRIIAQQGDLAAARQVQLLLGFGEVRVESTGVLASDVTIQLGDDARDRLQLRRTTSLLEHHHHHH” here?
Answer: soluble

Question: Which “soluble on expression in E. coli” value does the source give for “GPGSMPQSAVMNVMVQAAMKAGRSLVRDYGEVQNLQVSLKGPADYVSQADRKAEKIIFNELSKARPKFGFLMEESEEIIGEDSQHRFIVDPLDGTTNFLHGIPFFAVSIALESQGKIVAGVIYNPINDELFTAERGSGAFFNDRRCRVSARRRLEDCVIATGMPHLGRPGHGTYLIELRNVMAEVSGIRRFGTAALDLAYVAAGRTDGFWEDNLQIWDMAAGILMVREAGGFVTDKEGGNDIFRKKNIIAGNEHIRIKLERALKKGI” here?
Answer: soluble

Question: For “MGHHHHHHSHMANSAGSMANSAGSMHLVVESFPSYRDVTLFEGKRVSFYKRAQILVADTWSVLEGKGDGCFKDISSITMFADYRLPQVLAHLGALKYSDDLLKKLLKGEMLSYGDRQEVEIRGCSLWCVELIRDCLLELIEQKGEKPNGEINSILLDYYLWDYAHDHREDMKGIPFHRIRCIYY”, which “soluble on expression in E. coli” value is on record?
Answer: not soluble

Question: For “MTMYQTINEWVDYIDKGCSVLHLDFNVFKKELSLDIKVFEDEGEYTHKISFQNVASAYYSADVGDMRLEKIDPEEYNWQVFEMSYHPEGIGNLSNSIIPEYQSNANFLIDMNRMLIAIEAETVRFDDQSFYAYQLNTKLEHHHHHH”, which “soluble on expression in E. coli” value is on record?
Answer: soluble

Question: With “MGHHHHHHSHMAAPEAEVLSSAAVPDLEWYEKSEETHASQIELLETSSTQEPLNASEAFCPRDCMVPVVFPGPVSQEGCCQFTCELLKHIMYQRQQLPLPYEQLKHFYRKPSPQAEEMLKKKPRATTEVSSRKCQQALAELESVLSHLEDFFARTLVPRVLILLGGNALSPKEFYELDLSLLAPYSVDQSLSTAACLRRLFRAIFMADAFSELQAPPLMGTVVMAQGHRNCGEDWFRPKLNYRVPSRGHKLTVTLSCGRPSIRTTAWEDYIWFQAPVTFKGFRE” as the sequence, how does the “soluble on expression in E. coli” value read?
Answer: not soluble

Question: Which “soluble on expression in E. coli” value does the source give for “MSLVPQGGPVLCRDEMEEWSASEAMLFEEALEKYGKDFNDIRQDFLPWKSLASIVQFYYMWKTTDRYIQQKRLKAAEAEGHHHHHH” here?
Answer: not soluble

Question: With “KCLVLDLDGTLWGGVVGEDGIEGIKLGPTGSGKPFYEFQKYIKSLFKKGVILAVNSKNNYDDAMEVIRKHPYMVLREEDFADFEINWQDKASNMRAIAKKLNIGIDSMVFMDDD” as the sequence, how does the “soluble on expression in E. coli” value read?
Answer: not soluble
